The assay concerns the target human insulin-like growth factor-I (IGF-I) (human).

“human insulin-like growth factor binding protein-3 (IGFBP-3), recombinant, from pDJ12833 (from UniProt P17936)” returned a yield of correctly folded (native) protein by RP-HPLC after cofolding, against each protein refolded alone of 99.6%.
